Assay results: patent US6949522B2, “β-2′- or 3′-halonucleosides” (Pharmasset, Inc., priority 2001, dated 2005)

Substrate: Nc1ncnc2c1ncn2[C@@H]1O[C@H](CO)[C@@H](O)[C@H]1O
Test: purified protein, by the assay type
Conditions: other: 25° C., phosphate buffer pH 7.4, substrate of ADA
Experimental: Assays were performed at 25° C. in phosphate buffer solution (pH 7.4) with substrate concentrations in the range of 15-100 μM and with 0.15 unit of adenosine deaminase (EC.3.5.4.4. from calf intestinal mucosa). The assays were monitored with a UV spectrometer at 265 nm. […] The concentration (ct) of each substrate at a certain time (t) was calculated from the absorbance (At) at that time (t), where it was assumed that the total change of absorbance (A0−A∞) was directly related to the disappearance of the substrate.^35 Initial hydrolysis rates for each substrate concentration were measured manually through graphical curve fitting of the concentration versus time data for reaction of each substrate. From Lineweaver-Burke plot of these initial rates, Vmax (maximum velocity) and KM (Michaelis constant) were obtained for each substrate and kcat was also calculated with 0.15 unit of the enzyme (M.W. 33,000) in 2 mL of buffer solution.

B1: adenosine deaminase (EC.3.5.4.4. from calf intestinal mucosa) (Bos taurus) (protein)
chain: MAQTPAFNKPKVELHVHLDGAIKPETILYYGRKRGIALPADTPEELQNIIGMDKPLSLPEFLAKFDYYMPAIAGCREAVKRIAYEFVEMKAKDGVVYVEVRYSPHLLANSKVEPIPWNQAEGDLTPDEVVSLVNQGLQEGERDFGVKVRSILCCMRHQPSWSSEVVELCKKYREQTVVAIDLAGDETIEGSSLFPGHVKAYAEAVKSGVHRTVHAGEVGSANVVKEAVDTLKTERLGHGYHTLEDATLYNRLRQENMHFEVCPWSSYLTGAWKPDTEHPVVRFKNDQVNYSLNTDDPLIFKSTLDTDYQMTKNEMGFTEEEFKRLNINAAKSSFLPEDEKKELLDLLYKAYGMPSPASAEQCL
- Km: 24.5 µM
- kcat: 76.4 s⁻¹
- kcat/Km: 3.1e+06 M⁻¹ s⁻¹
